Experimental findings from patent US20250011363A1, “OPTIMIZED SHORTENED PEPTIDE THAT BINDS TO ACETYLCHOLINE RECEPTOR, AND USE THEREOF” (SKINMED CO., LTD., priority 2021, published 2025) are described below.

For the assay, the target named is acetylcholine receptor. Nature of the assay: SPR, receptor immobilized, peptide 10 uM.

The molecule KKGVLR [6mer-1-181] gave a Binding affinity (RU) of 148 RU.

Turning to KKPHR [5mer-793], the Binding affinity (RU) was found to be 19 RU.

For the molecule KRGQYK [6mer-1-164], the Binding affinity (RU) turned out to be 145 RU. For the molecule RRLIYR [6mer-1-158], the Binding affinity (RU) was 131 RU. Consider KKGQTR [6mer-1-183], for which the Binding affinity (RU) came out at 121 RU. RRVIQR [6mer-1-160]: the Binding affinity (RU) turned out to be 149 RU.

Regarding KKVYCK [6mer-1-176], the Binding affinity (RU) is 121 RU. The molecule RRRVYK [6mer-1-186] came in with a Binding affinity (RU) of 147 RU. Next, KPDIR [5mer-1097]: 28 RU; RKSLQK [6mer-1-188]: 122 RU. In turn, RRLIRK [6mer-1-172] registered a Binding affinity (RU) of 153 RU. Next, KRLRRK [6mer-1-159]: 139 RU; KRGRRR [6mer-1-146]: 139 RU; RFHGR [5mer-1098]: 31 RU. The figure for RRLFRR [6mer-1-137] is 121 RU; for RKQYYR [6mer-1-173] it is 123 RU. In turn, KAEKR [5mer-1095] yielded a Binding affinity (RU) of 27 RU. RRWVCK [6mer-1-149] yielded a Binding affinity (RU) of 131 RU.

RETMK [5mer-798] yielded a Binding affinity (RU) of 13 RU. In turn, KISGK [5mer-1090] returned a Binding affinity (RU) of 31 RU.

KRGVLR [6mer-1-143] had a Binding affinity (RU) of 145 RU. On to RMEKK [5mer-792], for which the Binding affinity (RU) came to 31 RU. For the molecule KRQICR [6mer-1-184], the Binding affinity (RU) came to 139 RU. The molecule RKLVRK [6mer-1-180] gave a Binding affinity (RU) of 146 RU. The molecule RKLFYK [6mer-1-187] yielded a Binding affinity (RU) of 139 RU. With RKRYQK [6mer-1-178], the Binding affinity (RU) turned out to be 139 RU. Consider RRVRSR [6mer-1-155], for which the Binding affinity (RU) turned out to be 127 RU. KKSLSK [6mer-1-162]: the Binding affinity (RU) turned out to be 142 RU. On to KTKMR [5mer-791], for which the Binding affinity (RU) amounted to 26 RU. Regarding RTKKR [5mer-795], the Binding affinity (RU) worked out at 20 RU. The figure for KRGICK [6mer-1-182] is 147 RU; for RKRQCR [6mer-1-150] it is 142 RU. Next, RRQQSK [6mer-1-169]: 153 RU; RPTDK [5mer-1096]: 15 RU. Molecule RKSFYR [6mer-1-170] came in with a Binding affinity (RU) of 148 RU. Regarding KRSQYR [6mer-1-179], the Binding affinity (RU) was 148 RU. KKVYYK [6mer-1-142] gave a Binding affinity (RU) of 123 RU. As for REAGK [5mer-790], the Binding affinity (RU) was 33 RU. Regarding RYSMK [5mer-1094], the Binding affinity (RU) was 15 RU. REEDK [5mer-1093]: the Binding affinity (RU) worked out at 32 RU. The figure for RKQFQK [6mer-1-171] is 123 RU.

Regarding KRWFCK [6mer-1-168], the Binding affinity (RU) stood at 131 RU. RKVFQR [6mer-1-145] came in with a Binding affinity (RU) of 141 RU. For the molecule KRQLRK [6mer-1-185], the Binding affinity (RU) was determined as 153 RU. RKLYQK [6mer-1-141]: the Binding affinity (RU) came to 141 RU. Take KRVIRR [6mer-1-152]: the Binding affinity (RU) was 154 RU. Take KKGVCR [6mer-1-174]: the Binding affinity (RU) came out at 154 RU. In turn, KEAPK [5mer-794] showed a Binding affinity (RU) of 20 RU. KRRFLR [6mer-1-139] displayed a Binding affinity (RU) of 122 RU.

RRRIQK [6mer-1-175] displayed a Binding affinity (RU) of 137 RU. KRRYCK [6mer-1-161] showed a Binding affinity (RU) of 139 RU. Next, KTHHR [5mer-1089]: 29 RU. Take KNWVR [5mer-796]: the Binding affinity (RU) was determined as 17 RU. As to KRLQTK [6mer-1-163], the Binding affinity (RU) turned out to be 147 RU. The figure for KRGYRR [6mer-1-177] is 121 RU. RKRYTR [6mer-1-144] yielded a Binding affinity (RU) of 148 RU.

RRSVTK [6mer-1-156] had a Binding affinity (RU) of 154 RU. Next, KKLYSR [6mer-1-154]: 153 RU; KETHK [5mer-797]: 15 RU; KKWFTK [6mer-1-165]: 148 RU.

KKWQQR [6mer-1-153] returned a Binding affinity (RU) of 146 RU.

For RRRYQR [6mer-1-167], the Binding affinity (RU) worked out at 122 RU. For KKQIQR [6mer-1-147], the Binding affinity (RU) turned out to be 125 RU. In turn, KTEHR [5mer-1091] came in with a Binding affinity (RU) of 29 RU. Turning to RKVVTR [6mer-1-138], the Binding affinity (RU) stood at 124 RU. KRGVRR [6mer-1-151] yielded a Binding affinity (RU) of 145 RU.

On to RRWLYK [6mer-1-136], for which the Binding affinity (RU) came out at 148 RU. KRQVQR [6mer-1-140]: the Binding affinity (RU) stood at 148 RU. KKSLLR [6mer-1-157] came in with a Binding affinity (RU) of 123 RU. The figure for KPMVK [5mer-1092] is 12 RU. RKLRCR [6mer-1-148] gave a Binding affinity (RU) of 146 RU. Molecule RRWYSK [6mer-1-166] registered a Binding affinity (RU) of 148 RU.
